Experimental data: article PMC4522956, “Unsaturated fatty acids as high-affinity ligands of the C-terminal Per-ARNT-Sim domain from the Hypoxia-inducible factor 3α” (Scientific Reports, 2015)

Target: T1, HIF-1β PASb labeled with FITC (human (cDNA library from the breast …, UniProt P27540 349-467, FITC (fluorescein isothiocyanate) label, sites not stated))
T1 construct: HIF-1β (ARNT), PASb domain, Pro349-Ser467 of UniProt P27540; Same construct as m2, labeled with a 20-fold molar excess of FITC in borate buffer pH 8.5; also called PASb-1β labeled with FITC; PASb-1β; source: E. coli Rosetta-2, purified (TALON, MonoQ, Superdex 75), then labeled with FITC; not shown: 6xHis, N-terminal, cleaved
Test: fluorescence polarisation; unlabeled PASb-1α or PASb-3α serially diluted 1:2 from about 1 mM, mixed with FITC-labeled PASb-1β at 20 nM final; 30 mM Hepes pH 7.5, 150 mM NaCl, 0.5 mM TCEP; room temperature; triplicate
Details: both partners purified

T1 sequence (P27540 349-467): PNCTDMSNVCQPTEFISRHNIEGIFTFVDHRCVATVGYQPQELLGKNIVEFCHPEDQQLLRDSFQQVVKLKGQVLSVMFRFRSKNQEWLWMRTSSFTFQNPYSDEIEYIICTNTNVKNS

binding result: binds
B1: HIF-1α PASb (domain or fragment)
chain: not shown
notes: Hypoxia-inducible factor 1α, PASb domain, Asp238-His348 of UniProt Q16665; Cloned NdeI/XhoI into pET28a; residues of the vector probably remain at the N-terminus after thrombin cleavage (surmise); also called PASb-1α; source: E. coli Rosetta-2, purified (TALON, MonoQ, Superdex 75); not shown: 6xHis, N-terminal, cleaved
